# Test results as given in article PMC7294632, “Structure-guided protein engineering increases enzymatic activities of the SGNH family esterases” (Biotechnology for Biofuels, 2020).
# B1: CrmE10 (Croceicoccus marinus) (protein)
# chain: MADGEAAGQQADAVMPTGPAIDVLAFGDSLFAGYRLDRDESYPARLQAALRERGLNVNVTNAGVSGDTTAAGLQRIDFVLDSMAGEPDLVLLELGANDMLRGLPAEEARRNLDTILQRLDQRDIPVMVYGMRAAPNLGGDYGRSFDSIFPDLADKYDAELVPFFIEPLIFDRSLVQQDQLHPTAQGVDAMVEQTVEQVEDRIDDL
# notes: expressed in E. coli BL21 (DE3) from pSMT3, N-terminal His-Sumo tag removed with ULP1; monomer in solution by MALS, domain-swapped dimer in crystal
# B2: AlinE4 (Altericroceibacterium indicum) (protein)
# chain: SMGESRVILAFGDSLFAGYGLDKGESYPAKLETALRSHGINARIINAGVSGDTTAAGLQRIKFVLDSQPDKPELAIVELGGNDLLRGLSPAEARQNLSGILEELQRRKIPILLMGMRAPPNLGAKYQREFDGIYPYLAEKYDAKLVPFFLEAVADRPDLIQKDHVHPTARGVEELVSATSNAVAKALPAKK
# notes: as for B1
# Legend:
# purified protein [1] = substrate: CCCCCC(=O)Oc1ccc([N+](=O)[O-])cc1; assay: purified protein; type: biochemical, Croceicoccus marinus; conditions: 100 mM Tris-HCl pH 7.5, 20 °C, substrate 0.05-2 mM
# purified protein [2] = substrate: CCCC(=O)Oc1ccc([N+](=O)[O-])cc1; assay: purified protein; type: biochemical, Altericroceibacterium indicum; conditions: 100 mM Tris-HCl pH 7.5, 40 °C, substrate 0.05-2 mM
Protein,Km (purified protein [1]) [µM],kcat (purified protein [1]) [s⁻¹],Km (purified protein [2]) [µM],kcat (purified protein [2]) [s⁻¹]
B1,160,29.4,–,–
B2,–,–,100,25.8
